Consider 3 substances from patent publication US20250177521A1.

The test has as its target Fc gamma receptor (FcγR). As to the kind of experiment: cell-based or functional assay.
The substance Obinutuzumab (antibody) gave a mean fold difference in CD107a on CD3-CD56+ NK cells against samples without mAbs, RA of 3.1 fold and a mean fold difference in CD107a on CD3-CD56+ NK cells against samples without mAbs, SLE of 1.8 fold.

In turn, “non-glycoengineered, wild type glycosylated OBZ (antibody)” displayed a mean fold difference in CD107a on CD3-CD56+ NK cells against samples without mAbs, RA of 1.9 fold and a mean fold difference in CD107a on CD3-CD56+ NK cells against samples without mAbs, SLE of 1.4 fold.

The substance rituximab (antibody) showed a mean fold difference in CD107a on CD3-CD56+ NK cells against samples without mAbs, RA of 1.2 fold and a mean fold difference in CD107a on CD3-CD56+ NK cells against samples without mAbs, SLE of 1.5 fold.
